Results: patent US20190309284A1, “METHODS AND KITS FOR DYNAMIC TARGETED HYPERMUTATION” (Massachusetts Institute of Technology, priority 2018, published 2019)

Assays:
[1] = promoter strength, Registry of Standard Biological Parts (Anderson collection); cited from earlier work
[2] = test system: Tet^R gene with inactive ACG start codon downstream of Kan^R on reporter plasmid; assay: Start codon reversion mutation assay, tetracycline resistance (downstream of target); format: cell-based, E. coli; settings: 24 h growth
Description: (§1) Mutation assay: To test mutagenesis rates, the control and mutagenic strains (Strep^R) carrying reporter plasmids (Amp^R) were streaked out on LB agar with 100 μg/mL streptomycin and 100 μg/mL ampicillin and grown at 37° C. for 24 hours. Then single colonies were picked in triplicate for each sample and grown in 5 mL LB with 100 μg/mL streptomycin,100 μg/mL ampicillin and 25 mM arabinose (with 10 μg/mL chloramphenicol if the strain contains MP6) at 37° C., 250 r.p.m. for 24 hours. Then 1 mL aliquots of each overnight were pelleted at 6000×g for 3 minutes and resuspended in 1 mL LB to remove arabinose. Then 50 μL of each resuspension was plated on LB agar plates with 50 μg/mL tetrazolium chloride and 200 μg/mL kanamycin, 20 μg/mL tetracycline, 100 μg/mL fosfomycin or 100 μg/mL rifampicin unless otherwise stated. 50 μL of a 100,000-fold dilution of each culture was also plated on LB agar with 100 μg/mL streptomycin, 100 μg/mL ampicillin and 50 μg/mL tetrazolium chloride. After incubating the plates at 37° C. for 48 hours, they were imaged by inverting the plates onto transparencies and scanning on a document scanner at a resolution of 400 d.p.i. The colonies were then counted using the software OpenCFU (3.9.0) (Geissmann Q., PLoS One. 2013; 8(2): e54072), with minimum colony radius set to 3, the maximum colony radius set to 50 and the regular threshold set to 4.
(§2) Mutation Assay: To assess mutagenesis rates, the control (Δung, rApo1, drApo1, and drApo1−T7; TABLE 8) and mutagenic strains (MutaT7 and MP6; TABLE 8) (Strep^R) carrying reporter plasmids (AmpR) were streaked on LB agar with 100 μg/mL streptomycin and 100 μg/mL ampicillin and grown at 37° C. for 24 h in order to obtain clones. Single colonies were picked in triplicate for each sample and used to inoculate 5 mL LB with 100 μg/mL streptomycin, 100 μg/mL ampicillin, and 25 mM arabinose (with 10 μg/mL chloramphenicol for the MP6 strain, TABLE 8), then shaken at 250 r.p.m. and 37° C. for 24 h to accumulate mutations during growth. 1 mL aliquots of each culture were pelleted at 6000×g for 3 min and resuspended in 1 mL LB to remove arabinose. Each resuspension was plated on LB agar plates with 50 μg/mL tetrazolium chloride (a metabolic contrast dye for visualizing colonies) and the antibiotics indicated below to analyze mutation rates and viability: • 50 μL of a 100,000-fold dilution of each resuspension was plated on LB agar with 100 μg/mL streptomycin, 100 μg/mL ampicillin, and 50 μg/mL tetrazolium chloride. For samples from the MP6 strain, owing to lower growth of that strain, 50 μL of a 10,000-fold dilution of each resuspension was plated to obtain a more accurate count. The colony counts from these plates were used to calculate the cell viability (i.e., the number of live, ampicillin resistant cells) in CFU/mL for each sample (FIG. 13D). • 50 μL of each resuspension was plated on LB agar plates with 200 μg/mL kanamycin and 50 μg/mL tetrazolium chloride. The colony counts from these plates were used to calculate the number of kanamycin resistant mutants in CFU/mL for each sample (FIG. 13E). The number of kanamycin resistant mutants in CFU/mL was divided by the number of live ampicillin resistant cells in CFU/mL for each sample to obtain the kanamycin resistant mutation frequency (FIG. 13B). • 50 μL of each resuspension was plated on LB agar plates with 20 μg/mL tetracycline and 50 μg/mL tetrazolium chloride. The colony counts from these plates were used to calculate the number of tetracycline resistant mutants in CFU/mL for each sample. The number of tetracycline resistant mutants in CFU/mL was divided by the number of live ampicillin resistant cells in CFU/mL for each sample to obtain the tetracycline resistant mutation frequency (FIG. 13B). • 50 μL of each resuspension was plated on LB agar plates with 100 μg/mL rifampicin and 50 μg/mL tetrazolium chloride. […]

E. coli = assay: Cell viability (live ampicillin resistant cells) in mutation assay; format: cell-based; settings: 24 h growth
Description: as §1
Mutation Assay: To assess mutagenesis rates, the control (Δung, rApo1, drApo1, and drApo1−T7; TABLE 8) and mutagenic strains (MutaT7 and MP6; TABLE 8) (Strep^R) carrying reporter plasmids (AmpR) were streaked on LB agar with 100 μg/mL streptomycin and 100 μg/mL ampicillin and grown at 37° C. for 24 h in order to obtain clones. Single colonies were picked in triplicate for each sample and used to inoculate 5 mL LB with 100 μg/mL streptomycin, 100 μg/mL ampicillin, and 25 mM arabinose (with 10 μg/mL chloramphenicol for the MP6 strain, TABLE 8), then shaken at 250 r.p.m. and 37° C. for 24 h to accumulate mutations during growth. […]

[3] = test system: Kan^R gene with ACG in place of ATG start codon on reporter plasmid; assay: Start codon reversion mutation assay, kanamycin resistance (on-target); format: cell-based, E. coli; settings: 24 h growth
Description: as §1, §2

E. coli genome [4] = assay: Off-target mutagenesis, fosfomycin resistance assay; format: cell-based; settings: 24 h growth
Description: as §1, §2

E. coli genome [5] = assay: Off-target mutagenesis, rifampicin resistance assay; format: cell-based; settings: 24 h growth
Description: as §1, §2

[6] = reporter plasmid No T7 promoter + filler DNA
[7] = reporter plasmid T7 promoter + filler DNA
[8] = reporter plasmid T7 promoter + terminator array

## BBa_J23112: Anderson collection promoter, SEQ ID NO: 14 (DNA CTGATAGCTAGCTCAGTCCTAGGGATTATGCTAGC; listed as DNA, chemistry not fully specified)
[1]
  Measured Strength: 0.00

## BBa_J23114: Anderson collection promoter, SEQ ID NO: 16 (DNA TTTATGGCTAGCTCAGTCCTAGGTACAATGCTAGC; listed as DNA, chemistry not fully specified)
[1]
  Measured Strength: 0.10

## BBa_J23108: Anderson collection promoter, SEQ ID NO: 10 (DNA CTGACAGCTAGCTCAGTCCTAGGTATAATGCTAGC; listed as DNA, chemistry not fully specified)
[1]
  Measured Strength: 0.51

## BBa_J23105: Anderson collection promoter, SEQ ID NO: 7 (DNA TTTACGGCTAGCTCAGTCCTAGGTACTATGCTAGC; listed as DNA, chemistry not fully specified)
[1]
  Measured Strength: 0.24

## BBa_J23104: Anderson collection promoter, SEQ ID NO: 6 (DNA TTGACAGCTAGCTCAGTCCTAGGTATTGTGCTAGC; listed as DNA, chemistry not fully specified)
[1]
  Measured Strength: 0.72

## BBa_J23113: Anderson collection promoter, SEQ ID NO: 15 (DNA CTGATGGCTAGCTCAGTCCTAGGGATTATGCTAGC; listed as DNA, chemistry not fully specified)
[1]
  Measured Strength: 0.01

## BBa_J23116: Anderson collection promoter, SEQ ID NO: 18 (DNA TTGACAGCTAGCTCAGTCCTAGGGACTATGCTAGC; listed as DNA, chemistry not fully specified)
[1]
  Measured Strength: 0.16

## BBa_J23115: Anderson collection promoter, SEQ ID NO: 17 (DNA TTTATAGCTAGCTCAGCCCTTGGTACAATGCTAGC; listed as DNA, chemistry not fully specified)
[1]
  Measured Strength: 0.15

## BBa_J23101: Anderson collection promoter, SEQ ID NO: 3 (DNA TTTACAGCTAGCTCAGTCCTAGGTATTATGCTAGC; listed as DNA, chemistry not fully specified)
[1]
  Measured Strength: 0.70

## BBa_J23117: Anderson collection promoter, SEQ ID NO: 19 (DNA TTGACAGCTAGCTCAGTCCTAGGGATTGTGCTAGC; listed as DNA, chemistry not fully specified)
[1]
  Measured Strength: 0.06

## BBa_J23107: Anderson collection promoter, SEQ ID NO: 9 (DNA TTTACGGCTAGCTCAGCCCTAGGTATTATGCTAGC; listed as DNA, chemistry not fully specified)
[1]
  Measured Strength: 0.36

## BBa_J23100: Anderson collection promoter, SEQ ID NO: 2 (DNA TTGACGGCTAGCTCAGTCCTAGGTACAGTGCTAGC; listed as DNA, chemistry not fully specified)
[1]
  Measured Strength: 1

## BBa_J23106: Anderson collection promoter, SEQ ID NO: 8 (DNA TTTACGGCTAGCTCAGTCCTAGGTATAGTGCTAGC; listed as DNA, chemistry not fully specified)
[1]
  Measured Strength: 0.47

## BBa_J23110: Anderson collection promoter, SEQ ID NO: 12 (DNA TTTACGGCTAGCTCAGTCCTAGGTACAATGCTAGC; listed as DNA, chemistry not fully specified)
[1]
  Measured Strength: 0.33

## BBa_J23103: Anderson collection promoter, SEQ ID NO: 5 (DNA CTGATAGCTAGCTCAGTCCTAGGGATTATGCTAGC; listed as DNA, chemistry not fully specified)
[1]
  Measured Strength: 0.01

## BBa_J23111: Anderson collection promoter, SEQ ID NO: 13 (DNA TTGACGGCTAGCTCAGTCCTAGGTATAGTGCTAGC; listed as DNA, chemistry not fully specified)
[1]
  Measured Strength: 0.58

## BBa_J23109: Anderson collection promoter, SEQ ID NO: 11 (DNA TTTACAGCTAGCTCAGTCCTAGGGACTGTGCTAGC; listed as DNA, chemistry not fully specified)
[1]
  Measured Strength: 0.04

## BBa_J23102: Anderson collection promoter, SEQ ID NO: 4 (DNA TTGACAGCTAGCTCAGTCCTAGGTACTGTGCTAGC; listed as DNA, chemistry not fully specified)
[1]
  Measured Strength: 0.86

## BBa_J23118: Anderson collection promoter, SEQ ID NO: 20 (DNA TTGACGGCTAGCTCAGTCCTAGGTATTGTGCTAGC; listed as DNA, chemistry not fully specified)
[1]
  Measured Strength: 0.56

B1: drApoI (protein, UniProt P38483 1-229, looked up, variant E63Q)
C->U-editing enzyme APOBEC-1: MSSETGPVAVDPTLRRRIEPHEFEVFFDPRELRKETCLLYEINWGGRHSIWRHTSQNTNKHVQVNFIEKFTTERYFCPNTRCSITWFLSWSPCGECSRAITEFLSRYPHVTLFIYIARLYHHADPRNRQGLRDLISSGVTIQIMTEQESGYCWRNFVNYSPSNEAHWPRYPHLWVRLYVLELYCIILGLPPCLNILRRKQPQLTFFTIALQSCHYQRLPPHILWATGLK
[2]; [6]
  Tet resistance Frequency: 1.1E−7
  Tet resistant CFU/mL: 1.8E+2 CFU/mL
[2]; [7]
  Tet resistance Frequency: 4.6E−7
  Tet resistant CFU/mL: 6.3E+2 CFU/mL
[2]; [8]
  Tet resistance Frequency: 2.1E−7
  Tet resistant CFU/mL: 3.7E+2 CFU/mL
E. coli; [6]
  Amp resistant CFU/mL (cell viability): 1.6E+9 CFU/mL
E. coli; [7]
  Amp resistant CFU/mL (cell viability): 1.3E+9 CFU/mL
E. coli; [8]
  Amp resistant CFU/mL (cell viability): 1.8E+9 CFU/mL
[3]; [6]
  Kan resistance Frequency: 3.8E−8
  Kan resistant CFU/mL: 6.0E+1 CFU/mL
[3]; [7]
  Kan resistance Frequency: 5.2E−7
  Kan resistant CFU/mL: 6.5E+2 CFU/mL
[3]; [8]
  Kan resistance Frequency: 6.6E−7
  Kan resistant CFU/mL: 1.2E+3 CFU/mL
E. coli genome [4]; [6]
  Fos resistance Frequency: 2.0E−6
  Fos resistant CFU/mL: 3.3E+3 CFU/mL
E. coli genome [4]; [7]
  Fos resistance Frequency: 2.7E−6
  Fos resistant CFU/mL: 3.5E+3 CFU/mL
E. coli genome [4]; [8]
  Fos resistance Frequency: 1.9E−6
  Fos resistant CFU/mL: 3.4E+3 CFU/mL
E. coli genome [5]; [6]
  Rif resistance Frequency: 4.5E−7
  Rif resistant CFU/mL: 7.6E+2 CFU/mL
E. coli genome [5]; [7]
  Rif resistance Frequency: 3.0E−7
  Rif resistant CFU/mL: 4.0E+2 CFU/mL
E. coli genome [5]; [8]
  Rif resistance Frequency: 3.4E−7
  Rif resistant CFU/mL: 5.9E+2 CFU/mL
